Measured values from patent US20240132563A1.

Columns and labels:
Assay in all cases: cell-based or functional assay
[1] = target: IL-18 polypeptide C143 (V11I, C38A, K53A, C76A, C127A) (human) (UniProt Q14116)
[2] = target: IL-18 polypeptide C144 (V11I, C38A, K53A, T63A, C76A, C127A) (human) (UniProt Q14116)
[3] = target: IL-18 polypeptide C145 (V11I, C38A, K53A, S55A, C76A, C127A) (human) (UniProt Q14116)
[4] = target: IL-18 polypeptide C146, SEQ ID NO: 68 (V11I, C38A, M51G, K53A, C76A, C127A) (human) (UniProt Q14116)
[5] = target: IL-18 polypeptide C147 (V11I, C38A, K53A, D54A, C76A, C127A) (human) (UniProt Q14116)
[6] = target: IL-18 polypeptide C148 (F2A, V11I, C38A, K53A, C76A, C127A) (human) (UniProt Q14116)
[7] = target: IL-18 polypeptide C149 (V11I, E31A, C38A, K53A, C76A, C127A) (human) (UniProt Q14116)
[8] = target: IL-18 polypeptide C150 (V11I, T34A, C38A, K53A, C76A, C127A) (human) (UniProt Q14116)
[9] = target: IL-18 polypeptide C151 (V11I, D35A, C38A, K53A, C76A, C127A) (human) (UniProt Q14116)
[10] = target: IL-18 polypeptide C152 (V11I, S36A, C38A, K53A, C76A, C127A) (human) (UniProt Q14116)
[11] = target: IL-18 polypeptide C153 (V11I, D37A, C38A, K53A, C76A, C127A) (human) (UniProt Q14116)
[12] = target: IL-18 polypeptide C154 (V11I, E31A, D37A, C38A, K53A, C76A, C127A) (human) (UniProt Q14116)
[13] = target: IL-18 polypeptide C155 (V11I, C38A, D40A, K53A, C76A, C127A) (human) (UniProt Q14116)
[14] = target: IL-18 polypeptide C156 (V11I, C38A, N41A, K53A, C76A, C127A) (human) (UniProt Q14116)
[15] = target: IL-18 polypeptide C157 (V11I, C38A, K53A, C76A, C127A, D132A) (human) (UniProt Q14116)
[16] = target: IL-18 polypeptide C158 (V11I, C38A, K53A, C76A, G108A, C127A) (human) (UniProt Q14116)
[17] = target: IL-18 polypeptide C159 (V11I, C38A, K53A, C76A, H109A, C127A) (human) (UniProt Q14116)
[18] = target: IL-18 polypeptide C160 (V11I, C38A, K53A, C76A, D110A, C127A) (human) (UniProt Q14116)
[19] = target: IL-18 polypeptide C161 (K8R, V11I, C38A, C76A, Q103E, C127A) (human) (UniProt Q14116)
[20] = target: IL-18 polypeptide C162 (K8E, V11I, C38A, C76A, Q103R, C127A) (human) (UniProt Q14116)
[21] = target: IL-18 polypeptide C163 (V11I, C38A, C76A, Q103K, C127A) (human) (UniProt Q14116)
[22] = target: IL-18 polypeptide C164 (V11I, C38A, S55H, C76A, C127A) (human) (UniProt Q14116)
[23] = target: IL-18 polypeptide C165 (V11I, C38A, S55R, C76A, C127A) (human) (UniProt Q14116)
[24] = target: IL-18 polypeptide C166 (V11I, C38A, S55T, C76A, C127A) (human) (UniProt Q14116)
[25] = target: IL-18 polypeptide C167 (V11I, C38A, C76A, S105I, C127A) (human) (UniProt Q14116)
[26] = target: IL-18 polypeptide C168 (V11I, C38A, C76A, S105K, C127A) (human) (UniProt Q14116)
[27] = target: IL-18 polypeptide of SEQ ID NO: 1 (native sequence) (human) (UniProt Q14116)
[28] = target: IL-18 polypeptide of SEQ ID NO: 30 (E6K, V11I, C38A, K53A, T63A, C76A, C127A) (human) (UniProt Q14116)
[29] = target: IL-18 polypeptide of SEQ ID NO: 34 (E06K, K53A, S55A) (human) (UniProt Q14116)
[30] = target: IL-18 polypeptide of SEQ ID NO: 35 (Y01G, F02A, E06K, M51G, K53A, D54A, S55A, T63A) (human) (UniProt Q14116)
[31] = target: IL-18 polypeptide of SEQ ID NO: 36 (K53A) (human) (UniProt Q14116)
[32] = target: IL-18 polypeptide of SEQ ID NO: 37 (S55A) (human) (UniProt Q14116)
[33] = target: IL-18 polypeptide of SEQ ID NO: 38 (E06K) (human) (UniProt Q14116)
[34] = target: IL-18 polypeptide of SEQ ID NO: 39 (E06K, K53A) (human) (UniProt Q14116)
[35] = target: IL-18 polypeptide of SEQ ID NO: 4 (E6K, C38A, K53A, C68A, M86C) (human) (UniProt Q14116)
[36] = target: IL-18 polypeptide of SEQ ID NO: 40 (E06K, S55A) (human) (UniProt Q14116)
[37] = target: IL-18 polypeptide of SEQ ID NO: 41 (K53A, S55A) (human) (UniProt Q14116)
[38] = target: IL-18 polypeptide of SEQ ID NO: 42 (E06K, K53A, S55A, T63A) (human) (UniProt Q14116)
[39] = target: IL-18 polypeptide of SEQ ID NO: 43 (E06K, K53A, S55A, Y01G) (human) (UniProt Q14116)
[40] = target: IL-18 polypeptide of SEQ ID NO: 46 (E06K, K53A, S55A, M51G) (human) (UniProt Q14116)
[41] = target: IL-18 polypeptide of SEQ ID NO: 47 (C38S, C68S, C76S, C127S) (human) (UniProt Q14116)
[42] = target: IL-18 polypeptide of SEQ ID NO: 48 (C38S, C68S, C76S, C127S, K70C) (human) (UniProt Q14116)
[43] = target: IL-18 polypeptide of SEQ ID NO: 5 (E6K, V11I, C38A, K53A, T63A, C68A, C76A, M86C, C127A) (human) (UniProt Q14116)
[44] = target: IL-18 polypeptide of SEQ ID NO: 50 (E06K, K53A, T63A) (human) (UniProt Q14116)
[45] = target: IL-18 polypeptide of SEQ ID NO: 51 (T63A) (human) (UniProt Q14116)
[46] = target: IL-18 polypeptide of SEQ ID NO: 52 (E06K, T63A) (human) (UniProt Q14116)
[47] = target: IL-18 polypeptide of SEQ ID NO: 53 (K53A, T63A) (human) (UniProt Q14116)
[48] = target: IL-18 polypeptide of SEQ ID NO: 54 (E06K, K53A, C38S, C68S, C76S, C127S, K70C) (human) (UniProt Q14116)
[49] = target: IL-18 polypeptide of SEQ ID NO: 55 (K53A, T63A, C38S, C68S, C76S, C127S, K70C) (human) (UniProt Q14116)
[50] = target: IL-18 polypeptide of SEQ ID NO: 57 (E6K, C38S, K53A) (human) (UniProt Q14116)
[51] = target: IL-18 polypeptide of SEQ ID NO: 59 (E6K, C38A, K53A) (human) (UniProt Q14116)
[52] = target: IL-18 polypeptide of SEQ ID NO: 6 (E6K, V11I, C38A, K53A, T63A, C68A, C76A, D98C, C127A) (human) (UniProt Q14116)
[53] = target: IL-18 polypeptide of SEQ ID NO: 60 (E6K, C38Q, K53A) (human) (UniProt Q14116)
[54] = target: IL-18 polypeptide of SEQ ID NO: 62 (E6K, C38A, K53A, C127A) (human) (UniProt Q14116)
[55] = target: IL-18 polypeptide of SEQ ID NO: 9 (E6K, C38A, K53A, C68A, D98C) (human) (UniProt Q14116)

Chain of IL-18 polypeptide C159 (V11I, C38A, K53A, C76A, H109A, C127A) (human) (Q14116 37-193 V47I/C74A/K89A/C112A/H145A/C163A): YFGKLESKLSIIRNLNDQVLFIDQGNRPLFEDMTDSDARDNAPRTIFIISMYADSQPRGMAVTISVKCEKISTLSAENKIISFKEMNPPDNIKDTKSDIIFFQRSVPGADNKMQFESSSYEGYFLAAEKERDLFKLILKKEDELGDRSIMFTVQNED
Chain of IL-18 polypeptide C149 (V11I, E31A, C38A, K53A, C76A, C127A) (human) (Q14116 37-193 V47I/E67A/C74A/K89A/C112A/C163A): as the sequence (Q14116 37-193 V47I/C74A/K89A/C112A/H145A/C163A) above, with E31A, A109H counted along it
Chain of IL-18 polypeptide of SEQ ID NO: 59 (E6K, C38A, K53A) (human) (Q14116 other isoform, or with tags, fused parts or gaps C38A K53A C38A K53A): as the sequence (Q14116 37-193 V47I/C74A/K89A/C112A/H145A/C163A) above, with E6K, I11V, A76C, A109H, A127C counted along it
Chain of IL-18 polypeptide of SEQ ID NO: 60 (E6K, C38Q, K53A) (human) (Q14116 other isoform, or with tags, fused parts or gaps C38Q K53A C38Q K53A): as the sequence (Q14116 37-193 V47I/C74A/K89A/C112A/H145A/C163A) above, with E6K, I11V, A38Q, A76C, A109H, A127C counted along it
Chain of IL-18 polypeptide C160 (V11I, C38A, K53A, C76A, D110A, C127A) (human) (Q14116 37-193 V47I/C74A/K89A/C112A/D146A/C163A): as the sequence (Q14116 37-193 V47I/C74A/K89A/C112A/H145A/C163A) above, with A109H, D110A counted along it
Chain of IL-18 polypeptide of SEQ ID NO: 36 (K53A) (human) (Q14116 37-193 K89A): as the sequence (Q14116 37-193 V47I/C74A/K89A/C112A/H145A/C163A) above, with I11V, A38C, A76C, A109H, A127C counted along it
Chain of IL-18 polypeptide C162 (K8E, V11I, C38A, C76A, Q103R, C127A) (human) (Q14116 other isoform, or with tags, fused parts or gaps V11I C38A C76A Q103R C127A V11I C38A C76A Q103R C127A): as the sequence (Q14116 37-193 V47I/C74A/K89A/C112A/H145A/C163A) above, with K8E, A53K, Q103R, A109H counted along it
Chain of IL-18 polypeptide C166 (V11I, C38A, S55T, C76A, C127A) (human) (Q14116 37-193 V47I/C74A/S91T/C112A/C163A): as the sequence (Q14116 37-193 V47I/C74A/K89A/C112A/H145A/C163A) above, with A53K, S55T, A109H counted along it
Chain of IL-18 polypeptide of SEQ ID NO: 48 (C38S, C68S, C76S, C127S, K70C) (human) (Q14116 37-193 C74S/C104S/K106C/C112S/C163S): as the sequence (Q14116 37-193 V47I/C74A/K89A/C112A/H145A/C163A) above, with I11V, A38S, A53K, C68S, K70C, A76S, A109H, A127S counted along it
Chain of IL-18 polypeptide C152 (V11I, S36A, C38A, K53A, C76A, C127A) (human) (Q14116 37-193 V47I/S72A/C74A/K89A/C112A/C163A): as the sequence (Q14116 37-193 V47I/C74A/K89A/C112A/H145A/C163A) above, with S36A, A109H counted along it
Chain of IL-18 polypeptide C156 (V11I, C38A, N41A, K53A, C76A, C127A) (human) (Q14116 37-193 V47I/C74A/N77A/K89A/C112A/C163A): as the sequence (Q14116 37-193 V47I/C74A/K89A/C112A/H145A/C163A) above, with N41A, A109H counted along it
Chain of IL-18 polypeptide C167 (V11I, C38A, C76A, S105I, C127A) (human) (Q14116 37-193 V47I/C74A/C112A/S141I/C163A): as the sequence (Q14116 37-193 V47I/C74A/K89A/C112A/H145A/C163A) above, with A53K, S105I, A109H counted along it
Chain of IL-18 polypeptide of SEQ ID NO: 6 (E6K, V11I, C38A, K53A, T63A, C68A, C76A, D98C, C127A) (human) (Q14116 other isoform, or with tags, fused parts or gaps with the stated changes): as the sequence (Q14116 37-193 V47I/C74A/K89A/C112A/H145A/C163A) above, with E6K, T63A, C68A, D98C, A109H counted along it
Chain of IL-18 polypeptide C151 (V11I, D35A, C38A, K53A, C76A, C127A) (human) (Q14116 37-193 V47I/D71A/C74A/K89A/C112A/C163A): as the sequence (Q14116 37-193 V47I/C74A/K89A/C112A/H145A/C163A) above, with D35A, A109H counted along it
Chain of IL-18 polypeptide of SEQ ID NO: 50 (E06K, K53A, T63A) (human) (Q14116 37-193 E42K/K89A/T99A): as the sequence (Q14116 37-193 V47I/C74A/K89A/C112A/H145A/C163A) above, with E6K, I11V, A38C, T63A, A76C, A109H, A127C counted along it
Chain of IL-18 polypeptide C165 (V11I, C38A, S55R, C76A, C127A) (human) (Q14116 37-193 V47I/C74A/S91R/C112A/C163A): as the sequence (Q14116 37-193 V47I/C74A/K89A/C112A/H145A/C163A) above, with A53K, S55R, A109H counted along it
Chain of IL-18 polypeptide of SEQ ID NO: 34 (E06K, K53A, S55A) (human) (Q14116 37-193 E42K/K89A/S91A): as the sequence (Q14116 37-193 V47I/C74A/K89A/C112A/H145A/C163A) above, with E6K, I11V, A38C, S55A, A76C, A109H, A127C counted along it
Chain of IL-18 polypeptide of SEQ ID NO: 57 (E6K, C38S, K53A) (human) (Q14116 other isoform, or with tags, fused parts or gaps C38S K53A C38S K53A): as the sequence (Q14116 37-193 V47I/C74A/K89A/C112A/H145A/C163A) above, with E6K, I11V, A38S, A76C, A109H, A127C counted along it
Chain of IL-18 polypeptide C168 (V11I, C38A, C76A, S105K, C127A) (human) (Q14116 37-193 V47I/C74A/C112A/S141K/C163A): as the sequence (Q14116 37-193 V47I/C74A/K89A/C112A/H145A/C163A) above, with A53K, S105K, A109H counted along it
Chain of IL-18 polypeptide of SEQ ID NO: 62 (E6K, C38A, K53A, C127A) (human) (Q14116 other isoform, or with tags, fused parts or gaps C38A K53A C127A C38A K53A C127A): as the sequence (Q14116 37-193 V47I/C74A/K89A/C112A/H145A/C163A) above, with E6K, I11V, A76C, A109H counted along it
Chain of IL-18 polypeptide C163 (V11I, C38A, C76A, Q103K, C127A) (human) (Q14116 37-193 V47I/C74A/C112A/Q139K/C163A): as the sequence (Q14116 37-193 V47I/C74A/K89A/C112A/H145A/C163A) above, with A53K, Q103K, A109H counted along it
Chain of IL-18 polypeptide C143 (V11I, C38A, K53A, C76A, C127A) (human) (Q14116 37-193 V47I/C74A/K89A/C112A/C163A): as the sequence (Q14116 37-193 V47I/C74A/K89A/C112A/H145A/C163A) above, with A109H counted along it
Chain of IL-18 polypeptide C153 (V11I, D37A, C38A, K53A, C76A, C127A) (human) (Q14116 37-193 V47I/D73A/C74A/K89A/C112A/C163A): as the sequence (Q14116 37-193 V47I/C74A/K89A/C112A/H145A/C163A) above, with D37A, A109H counted along it
Chain of IL-18 polypeptide C144 (V11I, C38A, K53A, T63A, C76A, C127A) (human) (Q14116 37-193 V47I/C74A/K89A/T99A/C112A/C163A): as the sequence (Q14116 37-193 V47I/C74A/K89A/C112A/H145A/C163A) above, with T63A, A109H counted along it
Chain of IL-18 polypeptide of SEQ ID NO: 38 (E06K) (human) (Q14116 37-193 E42K): as the sequence (Q14116 37-193 V47I/C74A/K89A/C112A/H145A/C163A) above, with E6K, I11V, A38C, A53K, A76C, A109H, A127C counted along it
Chain of IL-18 polypeptide of SEQ ID NO: 51 (T63A) (human) (Q14116 37-193 T99A): as the sequence (Q14116 37-193 V47I/C74A/K89A/C112A/H145A/C163A) above, with I11V, A38C, A53K, T63A, A76C, A109H, A127C counted along it
Chain of IL-18 polypeptide of SEQ ID NO: 46 (E06K, K53A, S55A, M51G) (human) (Q14116 37-193 E42K/M87G/K89A/S91A): as the sequence (Q14116 37-193 V47I/C74A/K89A/C112A/H145A/C163A) above, with E6K, I11V, A38C, M51G, S55A, A76C, A109H, A127C counted along it
Chain of IL-18 polypeptide C145 (V11I, C38A, K53A, S55A, C76A, C127A) (human) (Q14116 37-193 V47I/C74A/K89A/S91A/C112A/C163A): as the sequence (Q14116 37-193 V47I/C74A/K89A/C112A/H145A/C163A) above, with S55A, A109H counted along it

- IC50 of IL-18BPa inhibition of IFNγ induction in NK-92 cells [1]: 7.52 nM
- IC50 of IL-18BPa inhibition of IFNγ induction in NK-92 cells [2]: 10.2 nM
- IC50 of IL-18BPa inhibition of IFNγ induction in NK-92 cells [3]: 733 nM
- IC50 of IL-18BPa inhibition of IFNγ induction in NK-92 cells [4]: 47.6 nM
- IC50 of IL-18BPa inhibition of IFNγ induction in NK-92 cells [5]: 5.05 nM
- IC50 of IL-18BPa inhibition of IFNγ induction in NK-92 cells [6]: 1.17 nM
- IC50 of IL-18BPa inhibition of IFNγ induction in NK-92 cells [7]: 21.3 nM
- IC50 of IL-18BPa inhibition of IFNγ induction in NK-92 cells [8]: 3.62 nM
- IC50 of IL-18BPa inhibition of IFNγ induction in NK-92 cells [9]: 7.85 nM
- IC50 of IL-18BPa inhibition of IFNγ induction in NK-92 cells [10]: 2.22 nM
- IC50 of IL-18BPa inhibition of IFNγ induction in NK-92 cells [11]: 3.71 nM
- IC50 of IL-18BPa inhibition of IFNγ induction in NK-92 cells [12]: 3.23 nM
- IC50 of IL-18BPa inhibition of IFNγ induction in NK-92 cells [13]: 0.681 nM
- IC50 of IL-18BPa inhibition of IFNγ induction in NK-92 cells [14]: 6.08 nM
- IC50 of IL-18BPa inhibition of IFNγ induction in NK-92 cells [15]: 3.98 nM
- IC50 of IL-18BPa inhibition of IFNγ induction in NK-92 cells [16]: 1.81 nM
- IC50 of IL-18BPa inhibition of IFNγ induction in NK-92 cells [17]: 3.18 nM
- IC50 of IL-18BPa inhibition of IFNγ induction in NK-92 cells [18]: 1.07 nM
- IC50 of IL-18BPa inhibition of IFNγ induction in NK-92 cells [19]: 7.29 nM
- IC50 of IL-18BPa inhibition of IFNγ induction in NK-92 cells [20]: 0.823 nM
- IC50 of IL-18BPa inhibition of IFNγ induction in NK-92 cells [21]: 0.456 nM
- IC50 of IL-18BPa inhibition of IFNγ induction in NK-92 cells [22]: 0.885 nM
- IC50 of IL-18BPa inhibition of IFNγ induction in NK-92 cells [23]: 0.44 nM
- IC50 of IL-18BPa inhibition of IFNγ induction in NK-92 cells [24]: 0.809 nM
- IC50 of IL-18BPa inhibition of IFNγ induction in NK-92 cells [25]: 0.176 nM
- IC50 of IL-18BPa inhibition of IFNγ induction in NK-92 cells [26]: 5.85 nM
- IC50 of IL-18BPa inhibition of IFNγ induction in NK-92 cells [27]: 1.47 nM
- IC50 of IL-18BPa inhibition of IFNγ induction in NK-92 cells [28]: 284 nM
- IC50 of IL-18BPa inhibition of IFNγ induction in NK-92 cells [29]: 229 nM
- IC50 of IL-18BPa inhibition of IFNγ induction in NK-92 cells [30]: > 55 nM
- IC50 of IL-18BPa inhibition of IFNγ induction in NK-92 cells [31]: 27.3 nM
- IC50 of IL-18BPa inhibition of IFNγ induction in NK-92 cells [32]: 4.46 nM
- IC50 of IL-18BPa inhibition of IFNγ induction in NK-92 cells [33]: 7.79 nM
- IC50 of IL-18BPa inhibition of IFNγ induction in NK-92 cells [34]: > 703 nM
- IC50 of IL-18BPa inhibition of IFNγ induction in NK-92 cells [35]: 396 nM
- IC50 of IL-18BPa inhibition of IFNγ induction in NK-92 cells [36]: 15 nM
- IC50 of IL-18BPa inhibition of IFNγ induction in NK-92 cells [37]: 37.3 nM
- IC50 of IL-18BPa inhibition of IFNγ induction in NK-92 cells [38]: 1060 nM
- IC50 of IL-18BPa inhibition of IFNγ induction in NK-92 cells [39]: 27.8 nM
- IC50 of IL-18BPa inhibition of IFNγ induction in NK-92 cells [40]: 0.189 nM
- IC50 of IL-18BPa inhibition of IFNγ induction in NK-92 cells [41]: 0.444 nM
- IC50 of IL-18BPa inhibition of IFNγ induction in NK-92 cells [42]: 0.114 nM
- IC50 of IL-18BPa inhibition of IFNγ induction in NK-92 cells [43]: 62.4 nM
- IC50 of IL-18BPa inhibition of IFNγ induction in NK-92 cells [44]: > 1000 nM
- IC50 of IL-18BPa inhibition of IFNγ induction in NK-92 cells [45]: 0.239 nM
- IC50 of IL-18BPa inhibition of IFNγ induction in NK-92 cells [46]: 47.1 nM
- IC50 of IL-18BPa inhibition of IFNγ induction in NK-92 cells [47]: 18.2 nM
- IC50 of IL-18BPa inhibition of IFNγ induction in NK-92 cells [48]: 23.5 nM
- IC50 of IL-18BPa inhibition of IFNγ induction in NK-92 cells [49]: > 1000 nM
- IC50 of IL-18BPa inhibition of IFNγ induction in NK-92 cells [50]: 1.62 nM
- IC50 of IL-18BPa inhibition of IFNγ induction in NK-92 cells [51]: 146 nM
- IC50 of IL-18BPa inhibition of IFNγ induction in NK-92 cells [52]: 5.85 nM
- IC50 of IL-18BPa inhibition of IFNγ induction in NK-92 cells [53]: 654 nM
- IC50 of IL-18BPa inhibition of IFNγ induction in NK-92 cells [54]: 780 nM
- IC50 of IL-18BPa inhibition of IFNγ induction in NK-92 cells [55]: 961 nM
Substance: Fc-fused human IL-18 binding protein isoform a (IL-18BPa) (from UniProt O95998 31-194) (Fc fusion)
